{"source": "paper PMC3315512", "key": {"[1]": {"target": "CeHsc70-Δ545 (half-lid deletion of CeHsc70) (C. elegans) (UniProt P09446)", "sequence (P09446 1-545, stated change not applied)": "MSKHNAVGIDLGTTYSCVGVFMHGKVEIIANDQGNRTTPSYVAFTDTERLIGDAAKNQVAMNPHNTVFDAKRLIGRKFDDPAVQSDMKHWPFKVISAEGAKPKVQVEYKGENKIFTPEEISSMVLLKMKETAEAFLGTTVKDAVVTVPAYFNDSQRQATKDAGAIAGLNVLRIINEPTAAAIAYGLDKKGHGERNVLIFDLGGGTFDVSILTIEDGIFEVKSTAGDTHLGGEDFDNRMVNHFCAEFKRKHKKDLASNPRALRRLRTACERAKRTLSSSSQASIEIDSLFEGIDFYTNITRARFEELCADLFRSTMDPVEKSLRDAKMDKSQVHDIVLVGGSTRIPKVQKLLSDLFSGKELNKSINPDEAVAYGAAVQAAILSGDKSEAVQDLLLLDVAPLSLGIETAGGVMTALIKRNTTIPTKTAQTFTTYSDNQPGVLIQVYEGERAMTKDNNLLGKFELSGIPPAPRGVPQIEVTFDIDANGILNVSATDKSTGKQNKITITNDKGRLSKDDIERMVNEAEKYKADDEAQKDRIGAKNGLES"}, "[2]": {"target": "CeHsc70-Δ512 (lidless CeHsc70) (C. elegans) (UniProt P09446)", "sequence (P09446 1-512, stated change not applied)": "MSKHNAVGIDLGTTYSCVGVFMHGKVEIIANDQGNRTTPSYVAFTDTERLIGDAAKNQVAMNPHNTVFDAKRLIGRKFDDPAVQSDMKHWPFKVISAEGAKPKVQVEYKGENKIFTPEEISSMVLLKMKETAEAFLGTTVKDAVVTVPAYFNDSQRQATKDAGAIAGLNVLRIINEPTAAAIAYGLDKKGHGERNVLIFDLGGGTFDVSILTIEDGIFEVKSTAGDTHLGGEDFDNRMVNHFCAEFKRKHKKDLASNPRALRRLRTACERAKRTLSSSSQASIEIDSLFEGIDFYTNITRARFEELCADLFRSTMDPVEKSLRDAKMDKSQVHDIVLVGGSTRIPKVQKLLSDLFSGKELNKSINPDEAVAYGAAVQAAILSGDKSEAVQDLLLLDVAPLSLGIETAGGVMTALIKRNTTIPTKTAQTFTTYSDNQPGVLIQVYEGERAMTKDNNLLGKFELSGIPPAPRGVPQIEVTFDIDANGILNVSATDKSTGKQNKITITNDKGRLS"}}, "data": [{"substance": "DNJ-13 (C. elegans, unlabelled), Q20774 1-331 (natural protein)", "values": [{"measurement": "apparent KD of DNJ-13 from titration of the steady-state ATPase activity, standard buffer, 25°C", "setting": "[1]", "result": 4200, "unit": "nM"}, {"measurement": "apparent KD of DNJ-13 from titration of the steady-state ATPase activity of 1 µM CeHsc70-Δ512 in the presence of 2 µM BAG-1, standard buffer, 25°C", "setting": "[2]", "result": 1200, "unit": "nM"}]}]}
